Measurements reported in patent US20060183159A1, “Method for engineering a protein by in vitro coevolution” (priority 2005, published 2006).
“Also recorded” adds a separate entry of the source.

What was measured:
corticosterone = experiment: Yeast two-hybrid based cell growth assay, response to corticosterone; details: in yeast; corticosterone 10^−4 M, 24 hours (up to four days at 30° C.)
Protocol: (§1) A yeast two-hybrid based cell growth assay was used to quantify the ligand activity of the wild-type and mutant hERαLBD in 96-well plates (Chen, et al. (2004) supra). Briefly, yeast cells harboring the plasmid containing the target hERαLBD and plasmid pGAD424 SRC-1 were grown to saturation (OD600 4-5) in 2-3 mL minimal medium lacking tryptophan and leucine, and then diluted to OD600 0.002 using minimal medium lacking tryptophan, leucine and histidine. Each well contained 200 μL diluted yeast cells and 0.2 μL of specified ligand dissolved in 100% ethanol (E2, testosterone, and progesterone) or DMSO (corticosterone). The 96-well plates were incubated at 30° C. for 24 hours and the cell density was measured at 600 nm using a SPECTRAMAX® plate reader (Molecular Devices, Sunnyvale, Calif.).

[1] = Competitive binding (RBA) with 2 nM [3H]-E2, testosterone
progesterone = experiment: Yeast two-hybrid based cell growth assay, response to progesterone; details: in yeast; saturating ligand concentration 10^−5 M
Protocol: as §1

[2] = Competitive binding (RBA) with 2 nM [3H]-E2, progesterone
[3] = Competitive binding (RBA) with 2 nM [3H]-E2, corticosterone
[4] = Scatchard analysis of E2 binding to wild-type and mutant hERαLBD proteins; details: n = 2-3, error = range (n = 2) or S.E. (n > 2)
[5] = RBA = EC50^E2/EC50^ligand × 100, 2 nM [3H]-E2

B1: Pg10-1: hERαLBD variant with Glu353Gln, Gly390Asp, His524Asn, Leu536His, Thr585Ser (SEQ ID NOs:11 and 12) (protein)
chain: MTMTLHTKASGMALLHQIQGNELEPLNRPQLKIPLERPLGEVYLDSSKPAVYNYPEGAAYEFNAAAAANAQVYGQTGLPYGPGSEAAAFGSNGLGGFPPLNSVSPSPLMLLHPPPQLSPFLQPHGQQVPYYLENEPSGYTVREAGPPAFYRPNSDNRRQGGRERLASTNDKGSMAMESAKETRYCAVCNDYASGYHYGVWSCEGCKAFFKRSIQGHNDYMCPATNQCTIDKNRRKSCQACRLRKCYEVGMMKGGIRKDRRGGRMLKHKRQRDDGEGRGEVGSAGDMRAANLWPSPLMIKRSKKNSLALSLTADQMVSALLDAEPPILYSEYDPTRPFSEASMMGLLTNLADRQLVHMINWAKRVPGFVDLTLHDQVHLLECAWLEILMIDLVWRSMEHPGKLLFAPNLLLDRNQGKCVEGMVEIFDMLLATSSRFRMMNLQGEEFVCLKSIILLNSGVYTFLSSTLKSLEEKDHIHRVLDKITDTLIHLMAKAGLTLQQQHQRLAQLLLILSHIRHMSNKGMENLYSMKCKNVVPHYDLLLEMLDAHRLHAPTSRGGASVEETDQSHLATAGSTSSHSLQKYYISGEAEGFPATV
response to corticosterone (corticosterone): significant responses to corticosterone; also recorded: responded to corticosterone at submillimolar concentrations | RBA T (testosterone) [1, 5]: 0.21 ± 0.06 (3) | Kd ([1]; calculated with Kd^ligand = (Kd^E2/RBA) × 100, read-out: Kd T (testosterone)): 388 nM | response to progesterone (progesterone): responses to progesterone at nanomolar concentrations | RBA Pg (progesterone) [2, 5]: 0.679 ± 0.021 (3) | Kd ([2]; calculated with Kd^ligand = (Kd^E2/RBA) × 100, read-out: Kd Pg (progesterone)): 119 nM | RBA Cs (corticosterone) [3, 5]: 0.008 ± 0.001 (3) | Kd ([3]; calculated with Kd^ligand = (Kd^E2/RBA) × 100, read-out: Kd Cs (corticosterone)): 10300 nM | Kd [4]: 0.81 ± 0.23 nM
